Laboratory results as given in the Human Domainome abundance scans (Beltran et al. 2025).
± gives the uncertainty stated by the source.

B1: 1-phosphatidylinositol 4,5-bisphosphate phosphodiesterase gamma-2, residues 772 to 827; numbered along this chain, P16885 (parent)
chain: RTVKALYDYKAKRSDELSFCRGALIHNVSKEPGGWWKGDYGTRIQQYFPSNYVEDI
B2: E3 ubiquitin-protein ligase NEDD4-like, residues 539 to 589; numbered along this chain, Q96PU5 (parent)
chain: KTSLNPNDLGPLPPGWEERIHLDGRTFYIDHNSKITQWEDPRLQNPAITGP

Variants of: B1
Assay: abundance fitness (aPCA) (normalised: wild type 0, dead -1); higher = more abundant; growth selection in yeast, the domain comes from the species named
Conditions: Homo sapiens

Variant | abundance fitness
D55L | -0.448 ± 0.12
D55M | 0.086 ± 0.14
D55N | -0.033 ± 0.065
D55P | -0.022 ± 0.092
D55Q | -0.281 ± 0.12
D55S | -0.216 ± 0.081
D55V | -0.238 ± 0.06
D55Y | -0.287 ± 0.15

Variants of: B2
Assay: as above
Conditions: Homo sapiens

Variant | abundance fitness
K1A | -0.774 ± 0.27
K1D | -0.201 ± 0.12
K1E | -0.473 ± 0.48
K1G | -1.01 ± 0.27
K1H | -0.704 ± 0.28
K1I | -0.062 ± 0.2
K1L | -0.313 ± 0.045
K1N | -0.041 ± 0.12
K1R | -0.12 ± 0.097
K1S | -0.19 ± 0.068
K1T | -0.328 ± 0.055
K1V | -0.885 ± 0.25
K1W | -1.08 ± 0.2
T2A | -0.223 ± 0.051
T2C | -0.181 ± 0.3
T2D | 0.142 ± 0.084
T2E | -0.1 ± 0.061
T2F | 0.31 ± 0.09
T2G | -0.308 ± 0.056
T2H | -0.385 ± 0.15
T2I | 0.067 ± 0.06
T2K | -0.066 ± 0.072
T2L | -0.158 ± 0.054

Variant | abundance fitness
T2N | 0.374 ± 0.11
T2P | -0.341 ± 0.061
T2Q | -0.024 ± 0.096
T2R | -0.365 ± 0.069
T2S | -0.023 ± 0.046
T2V | -0.344 ± 0.058
T2W | -0.699 ± 0.062
T2Y | -0.001 ± 0.069
S3A | -0.412 ± 0.047
S3C | -0.339 ± 0.1
S3D | -0.085 ± 0.064
S3E | -0.363 ± 0.071
S3G | -0.353 ± 0.041
S3H | -0.223 ± 0.047
S3I | -0.162 ± 0.11
S3K | -0.264 ± 0.08
S3L | -0.345 ± 0.061
S3M | -0.193 ± 0.084
S3N | 0.093 ± 0.065
S3P | -0.308 ± 0.038
S3Q | -0.427 ± 0.07
S3R | -0.338 ± 0.042
S3T | -0.175 ± 0.041

Variant | abundance fitness
S3V | -0.353 ± 0.043
S3W | -0.86 ± 0.086
S3Y | -0.046 ± 0.081
L4A | -0.205 ± 0.046
L4C | -0.252 ± 0.056
L4D | -0.108 ± 0.073
L4E | -0.143 ± 0.076
L4F | -0.003 ± 0.081
L4G | -0.12 ± 0.043
L4H | -0.242 ± 0.1
L4I | -0.136 ± 0.1
L4K | 0.116 ± 0.066
L4N | -0.295 ± 0.094
L4P | -0.281 ± 0.061
L4Q | -0.024 ± 0.081
L4R | -0.241 ± 0.047
L4S | -0.07 ± 0.048
L4T | -0.303 ± 0.071
L4V | -0.139 ± 0.044
L4W | -0.283 ± 0.045
L4Y | -0.105 ± 0.1
N5A | -0.167 ± 0.052
N5C | -0.04 ± 0.08

Variant | abundance fitness
N5D | -0.407 ± 0.054
N5E | 0.019 ± 0.051
N5F | -0.135 ± 0.054
N5G | -0.175 ± 0.063
N5H | 0.008 ± 0.096
N5I | -0.256 ± 0.12
N5K | -0.247 ± 0.072
N5L | -0.212 ± 0.055
N5M | 0.01 ± 0.087
N5P | -0.487 ± 0.062
N5Q | -0.267 ± 0.085
N5R | -0.293 ± 0.042
N5S | -0.123 ± 0.049
N5T | -0.203 ± 0.057
N5V | -0.075 ± 0.061
N5W | -0.538 ± 0.067
N5Y | -0.259 ± 0.11
P6D | 0.159 ± 0.051
P6E | 0.057 ± 0.048
P6F | -0.123 ± 0.11
P6G | 0.027 ± 0.053
P6H | -0.237 ± 0.12
P6I | 0.077 ± 0.099

Variant | abundance fitness
P6K | 0.146 ± 0.091
P6M | 0.112 ± 0.088
P6N | 0.374 ± 0.1
P6Q | -0.199 ± 0.1
P6R | 0.015 ± 0.054
P6S | 0.156 ± 0.057
P6T | 0.144 ± 0.078
P6W | -0.176 ± 0.074
P6Y | -0.105 ± 0.12
N7A | -0.01 ± 0.058
N7D | 0.044 ± 0.08
N7E | 0.001 ± 0.085
N7F | -0.11 ± 0.09
N7G | 0.005 ± 0.047
N7H | -0.146 ± 0.059
N7I | -0.169 ± 0.088
N7K | -0.063 ± 0.098
N7L | -0.212 ± 0.048
N7M | -0.02 ± 0.066
N7P | -0.05 ± 0.084
N7Q | -0.137 ± 0.08
N7R | -0.041 ± 0.042
N7S | -0.042 ± 0.048

Variant | abundance fitness
N7T | -0.007 ± 0.042
N7V | -0.114 ± 0.059
N7W | -0.4 ± 0.056
N7Y | -0.395 ± 0.099
D8A | -0.138 ± 0.057
D8C | 0.033 ± 0.083
D8F | -0.321 ± 0.092
D8H | -0.194 ± 0.069
D8I | -0.189 ± 0.051
D8K | -0.022 ± 0.063
D8L | -0.304 ± 0.044
D8M | -0.307 ± 0.088
D8N | 0.013 ± 0.069
D8P | -0.218 ± 0.057
D8Q | -0.189 ± 0.053
D8R | -0.034 ± 0.053
D8S | -0.147 ± 0.047
D8W | -0.466 ± 0.053
L9F | -0.271 ± 0.31
L9S | -0.237 ± 0.36
L9V | -0.347 ± 0.32
G10A | -0.076 ± 0.041
G10C | -0.28 ± 0.079

Variant | abundance fitness
G10D | -0.24 ± 0.058
G10H | -0.53 ± 0.12
G10I | -0.508 ± 0.13
G10K | -0.238 ± 0.078
G10L | -0.429 ± 0.043
G10M | -0.485 ± 0.07
G10N | 0.139 ± 0.092
G10P | -0.347 ± 0.046
G10Q | -0.276 ± 0.049
G10R | -0.263 ± 0.056
G10S | -0.268 ± 0.059
G10T | -0.15 ± 0.074
G10V | -0.181 ± 0.045
G10W | -0.433 ± 0.048
G10Y | -0.571 ± 0.12
P11A | 0.022 ± 0.061
P11C | -0.178 ± 0.056
P11D | -0.025 ± 0.083
P11E | -0.044 ± 0.067
P11F | -0.426 ± 0.059
P11G | -0.19 ± 0.055
